What was measured:
Prp43;Tma23M = Prp43;Tma23M (Saccharomyces cerevisiae;Saccharomyces …, UniProt P53131;Q03525 1-767;43-111, |); experiment: fluorescence polarization; 5 mM Mg2+, no nucleotide listed; affinity unaltered vs Prp43 alone; 50 mM HEPES pH 7.5, 50 mM KCl, 5 mM MgCl2, 0.05% Tween-20, 1 mM DTT; 5 nM Cy5-U12 RNA, protein 20 pM to 2.5 uM; temperature not stated; conditions: protein: recombinant;recombinant; tags: His6 (HRV site; pET47b);GST (pGEX-6P-1; copies: 1;1; single strand
Prp43;Pxr1M = Prp43;Pxr1M (Saccharomyces cerevisiae;Saccharomyces …, UniProt P53131;P53335 1-767;72-137, |); experiment: as above; conditions: protein: recombinant;recombinant; tags: His6 (HRV site; pET47b);GST (pGEX-6P-1; copies: 1;1; single strand
Chain of Prp43;Pxr1M (P53131 whole entry, chain 1 of 2): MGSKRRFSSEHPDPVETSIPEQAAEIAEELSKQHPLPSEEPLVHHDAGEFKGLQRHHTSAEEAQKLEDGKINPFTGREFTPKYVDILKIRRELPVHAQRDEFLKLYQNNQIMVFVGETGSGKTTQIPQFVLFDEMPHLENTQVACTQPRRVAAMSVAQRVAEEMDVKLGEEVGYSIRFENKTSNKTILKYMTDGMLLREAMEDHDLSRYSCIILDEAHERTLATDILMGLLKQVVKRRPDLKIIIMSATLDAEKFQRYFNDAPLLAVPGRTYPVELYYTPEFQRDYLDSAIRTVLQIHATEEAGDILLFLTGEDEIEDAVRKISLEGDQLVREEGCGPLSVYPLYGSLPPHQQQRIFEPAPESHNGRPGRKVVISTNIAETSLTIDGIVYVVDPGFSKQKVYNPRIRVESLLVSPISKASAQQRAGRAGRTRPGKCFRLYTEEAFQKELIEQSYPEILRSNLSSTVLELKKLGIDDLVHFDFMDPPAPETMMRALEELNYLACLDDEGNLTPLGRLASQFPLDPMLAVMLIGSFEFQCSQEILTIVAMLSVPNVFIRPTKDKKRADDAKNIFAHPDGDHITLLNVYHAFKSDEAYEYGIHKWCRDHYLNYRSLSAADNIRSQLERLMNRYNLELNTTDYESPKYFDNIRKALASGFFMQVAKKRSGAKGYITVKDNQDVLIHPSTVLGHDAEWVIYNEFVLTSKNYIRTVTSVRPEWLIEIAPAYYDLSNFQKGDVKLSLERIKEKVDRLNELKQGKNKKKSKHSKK
Chain of Prp43;Pxr1M (P53335 72-137, chain 2 of 2): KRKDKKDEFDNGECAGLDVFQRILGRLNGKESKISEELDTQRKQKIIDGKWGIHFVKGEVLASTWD

Prp43 = Prp43 (Saccharomyces cerevisiae, UniProt P53131 1-767); experiment: fluorescence polarization; 5 mM Mg2+, no nucleotide listed; 50 mM HEPES pH 7.5, 50 mM KCl, 5 mM MgCl2, 0.05% Tween-20, 1 mM DTT; 5 nM Cy5-U12 RNA, protein 20 pM to 2.5 uM; temperature not stated; conditions: protein: recombinant; tags: His6 (HRV site; pET47b); single strand
Chain of Prp43 (P53131 whole entry): as the sequence (P53131 whole entry, chain 1 of 2) above

Measured: binding result

Chain of Prp43;Tma23M (P53131 whole entry, chain 1 of 2): as above
Chain of Prp43;Tma23M (Q03525 43-111, chain 2 of 2): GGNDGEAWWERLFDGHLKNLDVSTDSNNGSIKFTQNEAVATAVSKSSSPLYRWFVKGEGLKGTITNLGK

UUUUUUUUUUUU (ssRNA) [Cy5-U12 RNA]
binds: all assays above
